This passage reports Inhibition (%) of forskolin-mediated cAMP production results from patent publication US20220372484A1.

This assay concerns the target human FPR2 (transcript variant 1; Origene) fused with mGFP (human) (UniProt P25090). Kind of assay: cell-based or functional assay.

The substance “LL37 peptide (from UniProt P49913 134-170)” showed an Inhibition (%) of forskolin-mediated cAMP production of 46%.
